Results published in patent US20210017289A1 (AbbVie / Abbott, published 2021).
“And” between values parts separate entries of the source, which are not always exact repeats. Identical values can stand only once.

What was measured:
[1] = biological target: T1, human OX40 expressed on cells (human, UniProt P43489 29-277); test: cell-based or functional assay
T1 sequence: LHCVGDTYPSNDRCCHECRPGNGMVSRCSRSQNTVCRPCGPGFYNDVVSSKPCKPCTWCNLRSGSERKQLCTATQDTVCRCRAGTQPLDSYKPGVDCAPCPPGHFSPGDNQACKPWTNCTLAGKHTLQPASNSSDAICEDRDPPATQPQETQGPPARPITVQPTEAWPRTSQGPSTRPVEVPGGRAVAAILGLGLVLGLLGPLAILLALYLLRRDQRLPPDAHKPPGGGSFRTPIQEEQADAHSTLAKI

[2] = biological target: T1, human OX40 expressed on cells; test: flow cytometry on CD3/CD28 bead activated human CD4+ T cells
Procedure: After 24 hours, the beads were removed with a magnet. Cells were counted and resuspended to 1.5×10⁶/mL. An aliquot of the cell suspension (100 μL) was used per stain. Test antibody was titrated in a 4-fold dilution series starting at 1 μg/mL. Cells were stained for 30 minutes and washed twice. A 1:250 dilution of (4 μg/mL) of Goat anti Human Fc specific-PE/well (Jackson ImmunoResearch) was added in 100 μL/well PBS containing 1% BSA. Cells were stained for an additional 30 minutes and washed twice, transferred to tubes and acquired using the BD LSR Fortessa flow cytometer, and analyzed using FACSDiva analysis software version 8.0.1.

[3] = biological target: T1, human OX40 expressed on cells; test: flow cytometry on Jurkat NF-κB reporter cells expressing human OX40
Procedure: A Jurkat NF-κB reporter cell line expressing human OX40 protein was cultured in DMEM containing 10% FBS and penicillin/streptomycin (pen/strep). For the binding assay, each cell line was resuspended at 5 million cells per mL. 50 μL (250,000 cells)/well were transferred to each well of a 500 μL polypropylene 96-well plate (Nunc). A 2× stock of test anti-OX40 antibody or isotype control mAb was prepared in a separate dilution plate at 666, 333, 111, 37.03, 12.34, 4.11, 0.457, 0.152, 0.0508, 0.0169, 0.00564 nM in culture media. Each antibody (50 μL/well) was transferred into respective wells of the assay plate. Cells were incubated with the test anti-OX40 antibody or isotype control antibodies for 30 minutes at 4° C. and washed twice with 250 μL/well of PBS by centrifuging at 800 rpm for 3 minutes. Bound antibody was detected with Cy5-Donkey anti-human IgG (H+L) (Jackson ImmunoResearch) diluted to 2 μg/mL (50 μL/well) in PBS for 30 minutes at 4° C. Cells were washed once with 250 μL/well of PBS, resuspended in PBS containing 1% Formaldehyde and analyzed on a dual laser FACSCalibur (Becton Dickinson).

[4] = biological target: T1, human OX40 expressed on cells; test: competition by flow cytometry on Jurkat-NF-κB-huOX40 cells; competitor: ALEXA FLUOR 647-labeled Hu3738 at 2 µg/mL
Procedure: Analysis was performed by flow cytometry.

B1: Hu3738 (antibody, V domains shown)
VH: EVQLVESGGGLVQPGGSLRLSCAASGFTFSRYGMSWVRQAPGKGLELVATINSNGGRTYYPDSVKGRFTISRDNAKNSLYLQMNSLRAEDTAVYYCAREGITTAYAMDYWGQGTTVTVSS
VL: DIVMTQSPDSLAVSLGERATINCKASQSVDYDGDSYMHWYQQKPGQPPKLLIYAASILESGVPDRFSGSGSGTDFTLTISSLQAEDVAVYYCQQSNEDPRTFGGGTKVEIKR
notes: Humanized antibody; also called exemplary anti-OX40 antibody Hu3738; Hu3738 VH.1b / Hu3738 VL.1
ADCC reporter activity, EC50 [1]: 0.51 nM and 77 ng/mL
IFN-γ production by human CD4+ T cells, EC50 [1]: 0.16 nM and 24 ng/mL
proliferation of human peripheral blood CD4+ T cells, EC50 [1]: 0.11 nM and 16 ng/mL
EC50 [2]: 0.053 nM
EC50 [3]: 0.5 nM
IC50 (read off the curve) [4]: ~1 µg/mL
